What all share (conditions): glycan lost; control: wild-type ASGP-R1 in U87 cells
Series [1] can be described thus: SMN2 exon 7 inclusion RT-PCR, 0-30 µM dose response.
The nature of series [2]: SMN2 exon 7 inclusion RT-PCR, single 30 nM dose.
Series [3] can be described thus: Western blot quantification normalised to tubulin. Background: A western blot detects proteins with antibodies after separation by electrophoresis.

B1: ASGP-R1 H1a (asialoglycoprotein receptor 1): N79Q (protein)
parent chain: MTKEYQDLQHLDNEESDHHQLRKGPPPPQPLLQRLCSGPRLLLLSLGLSLLLLVVVCVIGSQNSQLQEELRGLRETFSNFTASTEAQVKGLSTQGGNVGRKMKSLESQLEKQQKDLSEDHSSLLLHVKQFVSDLRSLSCQMAALQGNGSERTCCPVNWVEHERSCYWFSRSGKAWADADNYCRLEDAHLVVVTSWEEQKFVQHHIGPVNTWMGLHDQNGPWKWVDGTDYETGFKNWRPEQPDDWYGHGLGGGEDCAHFTDDGRWNDDVCQRPYRWVCETELDKASQEPPLL
Consider B1, for which, in series [1], the “other: receptor-mediated GN3-ASO uptake and activity, fold_change” value is “no change”. The “other: receptor-mediated GN3-ASO uptake and activity” value in series [2] is on record as “no change”. The expression_or_secretion result in series [3] is reported as “no change”.

B2: ASGP-R1 H1a (asialoglycoprotein receptor 1): N147Q (protein)
parent chain: B1 parent chain
With B2, in series [1], the “other: receptor-mediated GN3-ASO uptake and activity, fold_change” value is “no change”. The “other: receptor-mediated GN3-ASO uptake and activity” value in series [2] is listed as “no change”. Besides, in series [3], the expression_or_secretion entry was “no change”.

B3: ASGP-R1 H1a (asialoglycoprotein receptor 1): N79Q/N147Q (protein)
parent chain: B1 parent chain
For the protein B3, in series [2], the “other: receptor-mediated GN3-ASO uptake and activity” value was “no change”. Moreover, the expression_or_secretion entry in series [3] is “no change”.

Values taken from publication PMC6453860.
